What was measured:
Conditions in all cases: both partners purified
[1] = target: T1, Human ubiquitin (unmodified) (human, UniProt P0CG48 1-76); assay: NMR titration; 1H-15N HSQC; 100 uM 15N-labeled Ub or pUb titrated with unlabeled UBA (22.7 to 340.4 uM); 20 mM HEPES, 150 mM NaCl, pH 7.4, 25 C; CSPs of pUb fitted with the revised model of coupled pUbRL/pUbRT equilibria (KD is for pUbRL), CSPs of Ub with a simple one-site model
T1 construct: ubiquitin, human; the cut product of the ubiquitin precursor; cloned into pET11a; 15N-labelled in the NMR titrations; also called unmodified Ub; source: E. coli BL21 star, purified (Sepharose SP, Sephacryl S100)

[2] = target: T2, S65-phosphorylated ubiquitin (human, UniProt P0CG48 1-76, phosphoserine at 65); assay: as above
T2 construct: ubiquitin, human; the cut product of the ubiquitin precursor; phosphorylated at S65 by PINK1; One chemical species that exchanges slowly between two conformations, pUbRL and pUbRT; The printed KD, kon and koff are defined for the pUbRL state; 15N-labelled or unlabelled, depending on the experiment; also called pUb; pUbRL (C-terminally relaxed conformation); source: E. coli BL21 star, purified; …

[3] = target: T2, S65-phosphorylated ubiquitin; assay: NMR CPMG relaxation dispersion; 15N-labeled Ubqln2-UBA 300 uM with 32 uM unlabeled pUb (~10% saturation); 20 mM HEPES, 150 mM NaCl, pH 7.4; two magnetic fields, global fit; kon and koff calculated from kex and the KD
[4] = target: T2, S65-phosphorylated ubiquitin; assay: NMR CPMG relaxation dispersion; 15N-labeled Ubqln2-UBA 300 uM with 228 uM unlabeled pUb (~50% saturation); 20 mM HEPES, 150 mM NaCl, pH 7.4; two magnetic fields, global fit; kon and koff calculated from kex and the KD

B1: Human Rad23A-UBA2 (residues 315 to 363) (domain or fragment)
chain: not shown
notes: UV excision repair protein Rad23A, human, second UBA domain (UBA2), residues 315 to 363; synthetic gene with optimized codons in pET11a; 15N-labelled in the CPMG experiment; also called Rad23-UBA2; second UBA domain (UBA2) from Rad23A; source: E. coli BL21 (DE3), purified (Ni-NTA, Sephacryl S100; TEV cleavage, second Ni-NTA, Sephacryl S100); not shown: thioredoxin, N-terminal, cleaved; His6, …
Kd [1]: 356 ± 56 µM
Kd [2]: 404 ± 38.8 µM

B2: Human Ubqln2-UBA (residues 578 to 621) (domain or fragment, UniProt Q9UHD9 578-621, looked up)
chain: PEVRFQQQLEQLNAMGFLNREANLQALIATGGDINAAIERLLGS
notes: Ubiquilin-2 (Ubqln2), human, UBA domain, residues 578 to 621; synthetic gene with optimized codons in pET11a; 15N- or 15N/13C-labelled in some experiments; also called UBA domain from Ubqln2; Ubiqulin-2 UBA; source: E. coli BL21 (DE3), purified (Ni-NTA, Sephacryl S100; TEV cleavage, second Ni-NTA, Sephacryl S100); not shown: thioredoxin, N-terminal, cleaved; His6, N-terminal, cleaved
koff [3]: 293 ± 27.5 s⁻¹
kon [3]: 6.8e+06 ± 600000 M⁻¹ s⁻¹
koff [4]: 678 ± 61 s⁻¹
kon [4]: 1.56e+07 ± 1.4e+06 M⁻¹ s⁻¹
Kd [1]: 33 ± 3.7 µM
Kd [2]: 43.3 ± 3.6 µM
